In patent publication US20220242936A1 (CHANGCHUN GENESCIENCE PHARMACEUTICAL, published 2022):
Residue numbers refer to the chain shown, from its start. Where no end group is shown, it is not given here.

Assays:
[1] = molecular target: T1, biotinylated Aβ1-16 polypeptide (also: biotinylated (site not given here)); experiment: ELISA, biotinylated peptide on streptavidin plate
T1 construct: also called Aβ1-16 (N-terminal peptide fragment)
T1 peptide: DAEFRHDSGYEVHHQK
Protocol: (§1) Detection: After stopping the reaction, the microtiter plate was immediately placed into a microplate reader, the OD value was measured at 450 nm, and the original data was stored.
(§2) Data processing: The raw data were input into the software SoftMax Pro 6.2.1 for data processing.

[2] = molecular target: T2, biotinylated Aβ14-29 polypeptide (biotinylated (site not stated)); experiment: ELISA, biotinylated peptide on streptavidin plate
T2 construct: also called Aβ14-29 (middle peptide fragment)
Protocol: as §1, §2

[3] = molecular target: T3, biotinylated Aβ1-42 polypeptide (human, biotinylated (site not stated)); experiment: ELISA, hybridoma supernatant on biotinylated peptide captured by streptavidin
T3 construct: also called Full length Aβ1-42
Protocol: as §1, §2

[4] = molecular target: T1, biotinylated Aβ1-16 polypeptide; experiment: as above
Protocol: as §1, §2

[5] = molecular target: T2, biotinylated Aβ14-29 polypeptide; experiment: as above
Protocol: as §1, §2

[6] = molecular target: Aβ1-42 polypeptide (human); experiment: cell-based or functional assay
[7] = molecular target: T4, Aβ1-42 polypeptide (human); experiment: SPR, Biacore T200, antibody captured on Protein A chip, human Aβ antigen as analyte
T4 construct: Synthetic peptide; also called Aβ1-42 monomer; Aβ monomer
Protocol: Biacore-T200 detection was performed, ProteinA chip was used to capture candidate antibodies or positive antibodies, different concentrations of human Aβ antigen were used to flow through the chip, and the fitting analysis was performed based on the collected data. […] The detection conditions were: capture time: 30 s; antigen binding time: 120 s; dissociation time: 900 s; flow rate: 30 μl/min. And the regeneration conditions were: 20 mM NaOH solution, flow rate: 30 μl/min.

[8] = molecular target: T4, Aβ1-42 polypeptide; experiment: ELISA EC50 on Aβ42 monomer, 2 ml transient transfection; table note: '-' means no combination; expression 61 mg/L
[9] = molecular target: T4, Aβ1-42 polypeptide; experiment: ELISA EC50 on Aβ42 monomer, 2 ml transient transfection; table note: '-' means no combination; expression 3.96 mg/L
[10] = molecular target: T4, Aβ1-42 polypeptide; experiment: ELISA EC50 on Aβ42 monomer, 2 ml transient transfection; table note: '-' means no combination; expression 5.42 mg/L
[11] = molecular target: T4, Aβ1-42 polypeptide; experiment: ELISA EC50 on Aβ42 monomer, 2 ml transient transfection; table note: '-' means no combination; expression 3.12 mg/L
[12] = molecular target: T4, Aβ1-42 polypeptide; experiment: ELISA EC50 on Aβ42 monomer, 2 ml transient transfection; table note: '-' means no combination; expression 68.2 mg/L
[13] = molecular target: T4, Aβ1-42 polypeptide; experiment: ELISA EC50 on Aβ42 monomer, 2 ml transient transfection; table note: '-' means no combination; expression 32.1 mg/L
[14] = molecular target: T4, Aβ1-42 polypeptide; experiment: ELISA EC50 on Aβ42 monomer, 2 ml transient transfection; table note: '-' means no combination; expression 3.88 mg/L
[15] = molecular target: T4, Aβ1-42 polypeptide; experiment: ELISA EC50 on Aβ42 monomer, 2 ml transient transfection; table note: '-' means no combination; expression 60 mg/L
[16] = molecular target: T4, Aβ1-42 polypeptide; experiment: ELISA EC50 on Aβ42 monomer, 2 ml transient transfection; table note: '-' means no combination; expression 3.68 mg/L

T4 sequence (peptide, as listed by the source): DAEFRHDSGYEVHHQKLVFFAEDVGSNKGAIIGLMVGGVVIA
T3 sequence (peptide, as listed by the source): as above

B1: 066-4.26.14 (antibody, V domains shown)
VH: EVKLVESGGGLVKPGGSLKLSCAASGFTFRSYAMSWVRQTPEKRLEWVASISTTSNTYYPDSVKGRFTTSRDNARNIVYLQMSSLRSDDTAMYYCGRGVITNQAWFAYWGQGTLVTVSA
VL: DIVLTQSPATLSVTPGDSVSLSCRASQSISNNLHWYQQKSHESPRLLIKYASQSISGIPSRFSGSGSGTDFTLSVNNVGTEDFGMYFCQQSNSWPLTFGAGTKLELK
notes: Murine hybridoma antibody
Which results are given for B1?
binding result [1]: no binding; binding result [2]: no binding; OD value at 450 nm [3]: 1.93 OD; OD value at 450 nm [4]: 0.0602 OD; OD value at 450 nm [5]: 0.0674 OD; relative fluorescence intensity (ThT, Aβ polymerization; PBS group = 1.0) [6]: 0.46 relative to PBS group; relative fluorescence intensity (ThT, Aβ polymerization; hIgG = 1.00) [6]: 0.7 relative to hIgG; relative value of LDH release (SHSY5Y cells with Aβ; Vehicle group = 1.0) [6]: 1.2 relative to Vehicle group; relative value of LDH release (SHSY5Y cells with Aβ; hIgG = 1.00) [6]: 1.2 relative to hIgG

B2: 066-4.26.14 mouse-human chimeric antibody (antibody, human IgG1, V domains shown)
VH: B1 VH
VL: DIVLTQSPATLSVTPGDSVSLSCRASQSISNNLHWYQQKSHESPRLLIKYASQSISGIPSRFSGSGSGTDFTLSVNNVGTEDFGMYFCQQSNSWPLTFGAGTKLELKR
B2 was tested. Which “relative fluorescence intensity (ThT, Aβ polymerization; hIgG = 1.00)” value [6] did it give?
The value was 0.71 relative to hIgG.

What about the “relative value of LDH release (SHSY5Y cells with Aβ; hIgG = 1.00)” value [6] of the same binder?
The value was 1.32 relative to hIgG.

And the Kd [7]?
The Kd was 12.6 nM.

What about the koff [7] of the same binder?
The koff was 0.000333 s⁻¹.

What about the kon [7] of the same binder?
The kon was 26500 M⁻¹ s⁻¹.

B3: 066-4.26.14H1L2 (antibody, human IgG1, V domains shown)
VH: EVQLVESGGGLVKPGGSLRLSCAASGFTFRSYAMSWVRQAPGKGLEWVASISTTSNTYYPDSVKGRFTTSRDNAKNSLYLQMNSLRAEDTAVYYCGRGVITNQAWFAYWGQGTLVTVSS
VL: DIVLTQSPATLSVSPGERATLSCRASQSISNNLHWYQQKPGQAPRLLIKYASQSISGIPARFSGSGSGTDFTLTISSLQSEDFAVYFCQQSNSWPLTFGGGTKVEIKR
notes: Humanized full-length antibody; human IgG1 heavy constant and human kappa light constant (vectors pGS003-hIgG1CH, pGS003-hIgKCL)
Does B3 bind [8]?
Result: no binding

B4: 066-4.26.14H4L4 (antibody, human IgG1, V domains shown)
VH: B3 VH with K13Q, L78V, N83S, A87D, V92M, T113I
VL: B3 VL with D1E, A9G, V13L, A60D, S77R, Q79E, S80P, F87Y
notes: as for B3
Does B4 bind [9]?
Result: no binding

B5: 066-4.26.14H3L1 (antibody, human IgG1, kappa, V domains shown)
VH: EVQLVQSGAEVKKPGESLKISCKGSGYSFRSYAMSWVRQMPGKGLEWVASISTTSNTYYPDSVKGRVTTSRDKSISTAYLQWSSLKASDTAMYYCGRGVITNQAWFAYWGQGTLVTVSS
VL: B3 VL with A19V, P40S, A60S, K103Q
notes: as for B3
Does B5 bind [10]?
Result: no binding

B6: 066-4.26.14H5L4 (antibody, human IgG1, V domains shown)
VH: B3 VH with K13Q, A23V, A74S, S77T, L78V, N83S
VL: B3 VL with D1E, A9G, V13L, A60D, S77R, Q79E, S80P, F87Y
notes: as for B3
Does B6 bind [11]?
Result: no binding

B7: 066-4.26.14H1L3 (antibody, human IgG1, V domains shown)
VH: B3 VH
VL: DIVLTQSPDFQSVTPKEKVTISCRASQSISNNLHWYQQKPDQSPKLLIKYASQSISGIPSRFSGSGSGTDFTLTINSLEAEDAAAYFCQQSNSWPLTFGPGTKVEIKR
notes: as for B3
Does B7 bind [12]?
Result: no binding

B8: 066-4.26.14H5L1 (antibody, human IgG1, V domains shown)
VH: B3 VH with K13Q, A23V, A74S, S77T, L78V, N83S
VL: B3 VL with A19V, P40S, A60S, K103Q
notes: as for B3
How did the “relative fluorescence intensity (ThT, Aβ polymerization; hIgG = 1.00)” value [6] turn out when B8 was run?
Its value is 0.68 relative to hIgG.

And the “relative value of LDH release (SHSY5Y cells with Aβ; hIgG = 1.00)” value [6]?
Its value is 1.37 relative to hIgG.

What about the Kd [7] of the same binder?
The Kd was 24.8 nM.

And the koff [7]?
Its koff is 0.000469 s⁻¹.

What about the kon [7] of the same binder?
Its kon is 18900 M⁻¹ s⁻¹.

B9: 066-4.26.14H1L4 (antibody, human IgG1, V domains shown)
VH: B3 VH
VL: B3 VL with D1E, A9G, V13L, A60D, S77R, Q79E, S80P, F87Y
notes: as for B3
Does B9 bind [13]?
Result: no binding

B10: 066-4.26.14H5L2 (antibody, human IgG1, V domains shown)
VH: B3 VH with K13Q, A23V, A74S, S77T, L78V, N83S
VL: B3 VL
notes: as for B3
How did the “relative fluorescence intensity (ThT, Aβ polymerization; hIgG = 1.00)” value [6] turn out when B10 was run?
Its value is 0.67 relative to hIgG.

And the “relative value of LDH release (SHSY5Y cells with Aβ; hIgG = 1.00)” value [6]?
Its value is 1.26 relative to hIgG.

And the Kd [7]?
The Kd was 20.8 nM.

What about the koff [7] of the same binder?
Its koff is 0.000278 s⁻¹.

And the kon [7]?
The kon was 13400 M⁻¹ s⁻¹.

B11: 066-4.26.14H2L3 (antibody, human IgG1, V domains shown)
VH: B3 VH with A40T, G42E, G44R, L78V, N83S, L114T
VL: B7 VL
notes: as for B3
Which results are given for B11?
relative fluorescence intensity (ThT, Aβ polymerization; hIgG = 1.00) [6]: 0.67 relative to hIgG; relative value of LDH release (SHSY5Y cells with Aβ; hIgG = 1.00) [6]: 1.42 relative to hIgG; Kd [7]: 25.8 nM; koff [7]: 0.000472 s⁻¹; kon [7]: 18300 M⁻¹ s⁻¹

B12: 066-4.26.14H4L2 (antibody, human IgG1, V domains shown)
VH: B3 VH with K13Q, L78V, N83S, A87D, V92M, T113I
VL: B3 VL
notes: as for B3
What does the source list for B12?
relative fluorescence intensity (ThT, Aβ polymerization; hIgG = 1.00) [6]: 0.7 relative to hIgG; relative value of LDH release (SHSY5Y cells with Aβ; hIgG = 1.00) [6]: 1.3 relative to hIgG; Kd [7]: 36.3 nM; koff [7]: 0.000463 s⁻¹; kon [7]: 12800 M⁻¹ s⁻¹

B13: 066-4.26.14H3L4 (antibody, human IgG1, kappa, V domains shown)
VH: B5 VH
VL: B3 VL with D1E, A9G, V13L, A60D, S77R, Q79E, S80P, F87Y
notes: as for B3
Does B13 bind [14]?
Result: no binding

B14: 066-4.26.14H2L2 (antibody, human IgG1, V domains shown)
VH: B3 VH with A40T, G42E, G44R, L78V, N83S, L114T
VL: B3 VL
notes: as for B3
With B14 as the binder, how does the “relative fluorescence intensity (ThT, Aβ polymerization; hIgG = 1.00)” value [6] read?
The value was 0.62 relative to hIgG.

And the “relative value of LDH release (SHSY5Y cells with Aβ; hIgG = 1.00)” value [6]?
Its value is 1.41 relative to hIgG.

What about the Kd [7] of the same binder?
The Kd was 22.5 nM.

What about the koff [7] of the same binder?
The koff was 0.000433 s⁻¹.

And the kon [7]?
The kon was 19200 M⁻¹ s⁻¹.

B15: 066-4.26.14H5L3 (antibody, human IgG1, V domains shown)
VH: B3 VH with K13Q, A23V, A74S, S77T, L78V, N83S
VL: B7 VL
notes: as for B3
Which results are given for B15?
relative fluorescence intensity (ThT, Aβ polymerization; hIgG = 1.00) [6]: 0.78 relative to hIgG; relative value of LDH release (SHSY5Y cells with Aβ; hIgG = 1.00) [6]: 1.41 relative to hIgG; Kd [7]: 32.5 nM; koff [7]: 0.00046 s⁻¹; kon [7]: 14200 M⁻¹ s⁻¹

B16: 066-4.26.14H1L1 (antibody, human IgG1, V domains shown)
VH: B3 VH
VL: B3 VL with A19V, P40S, A60S, K103Q
notes: as for B3
Does B16 bind [15]?
Result: no binding

B17: 066-7.17.2 (antibody, V domains shown)
VH: EVQLVESGGGLVKPGGSLKLSCAASGFTFSSYGMHWVRQAPEKGLEWVAMIWYDGTKKYYSDSVKGRFTISRDNAKNTLFLQMTSLRSEDTAMYYCARDRGIGTRHGPYFMDVWGQGTSVTVSS
VL: DIQMNQSPSSLSASLGDTITITCHARHNVRSYLNWYQQKPGNIPKLLIYAASSQQRGVPSRFSGSGSGTGFTLTISSLQPEDIATYYCLQSFGTPLTFGGGTKLEIK
B17 was tested. Which “OD value at 450 nm” value [3] did it give?
Its value is 1.08 OD.

And the “OD value at 450 nm” value [4]?
The value was 0.92 OD.

What about the “OD value at 450 nm” value [5] of the same binder?
The value was 0.0612 OD.

B18: 066-4.26.14H3L5 (antibody, human IgG1, kappa, V domains shown)
VH: B5 VH
VL: B7 VL with D1E, S22T, I58V, A85T, F87Y, P100Q
notes: as for B3
Does B18 bind [16]?
Result: no binding
